The values below come from US20090041783A1 (MOCHIDA PHARMACEUTICAL, published 2009).

Test [1] addresses T1, human GPVI extracellular region-human Fc fusion protein (hGPVI-hFc) (human).
T1 construct: Expressed in COS-1, purified on Protein A; also called GPVI-HHH-hFc; hGPVIHHH-hFc
The experiment in a line: ELISA on immobilised hGPVI-hFc, anti-human mu-chain detection.

The target of test [2] is T2, human platelet membrane glycoprotein VI (GPVI) on human platelets (human, UniProt Q9HCN6 21-339).
T2 construct: whole, on cells
T2 sequence (looked up): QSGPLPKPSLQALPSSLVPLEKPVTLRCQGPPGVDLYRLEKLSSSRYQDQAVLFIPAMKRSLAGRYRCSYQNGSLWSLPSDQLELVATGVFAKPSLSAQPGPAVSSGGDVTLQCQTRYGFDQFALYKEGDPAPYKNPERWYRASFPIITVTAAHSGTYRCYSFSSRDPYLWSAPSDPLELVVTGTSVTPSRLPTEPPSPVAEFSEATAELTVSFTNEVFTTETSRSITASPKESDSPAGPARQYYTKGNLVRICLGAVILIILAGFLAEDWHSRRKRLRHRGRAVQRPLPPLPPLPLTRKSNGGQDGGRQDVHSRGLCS
The experiment in a line: flow cytometry on human platelets, 3-4 µg/mL antibody, anti-human IgM-FITC. As for the experimental part:
Cynomolgus monkey and human PRPs prepared by the method described in 18-1 of EXAMPLE 18 were diluted with FACS buffer to make the platelet concentration 3.75×10⁸ cells/mL. To the diluted PRP, cF1232-37-2 (IgM) or cF1232-43-3 (IgM) prepared in the above 29-2 was added at the final concentration of 3-4 μg/mL, and stood at 25° C. for 30 minutes. After incubation, the platelet was washed with FACS buffer. Subsequently, after adding anti-human IgM-FITC (BD Biosciences Pharmingen) and standing at room temperature for 30 minutes, the platelet was washed with FACS buffer and the fluorescence intensity of the platelet was measured with flow cytometer CYTOMICS FC500 (BECKMAN COULTER). As a result, it was confirmed that both antibodies of cF1232-37-2 (IgM) and cF1232-43-3 (IgM) bind to the monkey and the human platelet.
In general terms: Flow cytometry measures light scatter and fluorescence of single cells or particles in a stream.

B1: mouse/human chimeric IgM-type F1232-37-2, cF1232-37-2 (IgM) (antibody)
VH: VQLQQSGPELVRPGESVKISCKGSGYTFTDYAIHWVKLSHAKSLEWIGVISIYYDDTNYNQKFKGKATMTVDKSSSTAYLELARLTSEDSAIYYCARRRDSSGPYAMDYWGQGTSVTVSS
VL: DIVLTQSPASLAVSLGQRATISCRASESVDSYGNSFMHWYQQKPGQPPKLLIYRASNLESGIPARFSGSGSRTDFTLTINPVEADDVATYYCQQSNEDPYTFGGGTKLEIKRADAA
chain: not shown
notes: Heavy chain: V region of cF1232-37-2 with human mu-chain constant region (pTK-2820); the CDRs of both clones are printed identical; Human kappa constant region
For the molecule B1, the binding result in test [1] and in test [2] was “binds” in each case.
